Patent US20180155451A1 (published 2018)

T1: FcγRIIb extracellular domain with C-terminal His tag (human, UniProt P31994 43-217)
T1 construct: extracellular domain; also called FcgRIIb; 2b; not shown: His tag at the C terminus
T1 sequence (looked up): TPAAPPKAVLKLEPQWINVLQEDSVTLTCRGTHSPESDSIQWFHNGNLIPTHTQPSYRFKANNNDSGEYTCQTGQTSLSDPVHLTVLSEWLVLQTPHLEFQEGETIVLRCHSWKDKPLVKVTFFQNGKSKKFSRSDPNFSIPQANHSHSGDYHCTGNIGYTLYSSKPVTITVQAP

T2: FcγRIIa H (human, UniProt P12318 34-217)
T2 construct: extracellular domain; Soluble His-tagged extracellular domain expressed in FreeStyle293 cells; also called FcγRIIa type H; FcgRIIa H; not shown: His tag attached to the C terminus
T2 sequence (looked up): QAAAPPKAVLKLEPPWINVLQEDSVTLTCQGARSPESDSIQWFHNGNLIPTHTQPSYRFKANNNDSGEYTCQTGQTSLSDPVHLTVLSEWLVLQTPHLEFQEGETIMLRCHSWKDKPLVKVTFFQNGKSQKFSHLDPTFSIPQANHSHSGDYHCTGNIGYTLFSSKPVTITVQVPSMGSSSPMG

T3: FcγRIIb (human, UniProt P31994 43-217)
T3 construct: extracellular domain; Soluble His-tagged extracellular domain expressed in FreeStyle293 cells; also called FcgRIIb; 2b; not shown: His tag attached to the C terminus
T3 sequence (looked up): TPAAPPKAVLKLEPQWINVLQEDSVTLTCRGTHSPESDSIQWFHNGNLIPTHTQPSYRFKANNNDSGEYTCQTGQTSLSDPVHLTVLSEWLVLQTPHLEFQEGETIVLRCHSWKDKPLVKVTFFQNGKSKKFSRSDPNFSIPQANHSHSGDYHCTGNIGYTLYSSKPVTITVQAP


How the values were obtained:
[1] = target: T4, FcγRIIIa extracellular domain with C-terminal His tag (human, UniProt P08637 17-208); test: SPR (Biacore), antibody captured via antigen peptide, FcγR as analyte; binding relative to GpH7-A5/GpH7-B3/GpL16-k0 = 100
T4 construct: extracellular domain; also called FcgRIIIa; 3a; not shown: His tag at the C terminus
T4 sequence (P08637 17-208): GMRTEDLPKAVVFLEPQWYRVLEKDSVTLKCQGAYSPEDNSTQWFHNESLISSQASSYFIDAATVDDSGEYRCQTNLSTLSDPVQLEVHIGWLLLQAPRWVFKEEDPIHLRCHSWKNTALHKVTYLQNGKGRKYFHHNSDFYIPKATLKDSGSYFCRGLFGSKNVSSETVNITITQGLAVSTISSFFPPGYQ

[2] = target: T1, FcγRIIb extracellular domain with …; test: as above
FcγRIIa H [3] = target: T2, FcγRIIa H; test: SPR (Biacore); He/Con_2aH divided by He/Con_2b (FcγRIIb) of the same antibody
Procedure: The heterodimerized antibodies He Abs in which one of the H chains was introduced with an alteration were assayed for their binding activities to each activating FcγR and inhibitory FcγR according to the method described in Example 4. […] The activating FcγRs in FIGS. 26, 27, 28, and 29 are FcγRIa, FcγRIIa (R), FcγRIIa (H), and FcγRIIIa, respectively.
(§1) Analysis of interaction between objective antibody and the FcγR was carried out using Biacore T100 (GE Healthcare). HBS-EP+ (GE Healthcare) was used as the running buffer, and the measurement temperature was set to 25° C. Chips produced by immobilizing the antigen peptide by the amine coupling method to a Series S Sencor Chip CM5 (GE Healthcare), or alternatively, chips produced by allowing preliminarily biotinylated antigen peptides to interact with and immobilize onto a Series S Sensor Chip SA (certified) (GE Healthcare) were used. Antibodies of interest were captured onto an antigen peptide-immobilized chip, and allowed to interact to each FcγR diluted with running buffer. To regenerate and repeatedly use the chip, the antibodies captured on the chip were washed off by reacting 10 mM glycine-HCl, pH 1.5.

FcγRIIa H [4] = target: T2, FcγRIIa H; test: SPR (Biacore), captured antibody, FcγR analyte; relative to GpH7-A5/GpH7-B3/GpL16-k0 = 100
Procedure: as §1
(§2) The FcγR-binding activity of each antibody was assessed primarily using as an indicator the FcγR-binding activity and dissociation constant for FcγR.

FcγRIIb = target: T3, FcγRIIb; test: as above
Procedure: as §1, §2

| He/Con_3a [1] | He/Con_2b [2] | He_2aH/2b (FcγRIIa H [3]) [ratio] | He/Con_2aH (FcγRIIa H [4]) | He/Con_2b (FcγRIIb) | Binder |
| --- | --- | --- | --- | --- | --- |
| – | – | 0.77 | 84.7 relative (control = 100) | 110 relative (control = 100) | GpH7-A5/GpH7-B3 variant P331_04F/GpL16-k0 (antibody, human IgG1, kappa, Heterodimerized anti-glypican-3 IgG1; mutation in the GpH7-B3 H chain only; also called He Ab) heavy 1: not shown heavy 2: not shown light: DIVMTQSPLSLPVTPGEPASISCQASESLVHSNRNTYLHWYLQKPGQSPQLLIYKVSNRFSGVPDRFSGSGSGTDFTLKISRVEAEDVGVYYCSQNTHVPPTFGQGTKVEIERTVAAPSVFIFPPSDEQLKSGTASVVCLLNNFYPREAKVQWKVDNALQSGNSQESVTEQDSKDSTYSLSSTLTLSKADYEKHKVYACEVTHQGLSSPVTKSFNRGEC |
| 108 relative (control = 100) | 89.5 relative (control = 100) | – | – | – | GpH7-A5/GpH7-B3 variant I336_14T/GpL16-k0 (antibody, human IgG1, kappa, He Ab: the mutation stands only in the GpH7-B3-derived H chain; also called He Ab I336T) heavy 1: not shown heavy 2: not shown light: DIVMTQSPLSLPVTPGEPASISCQASESLVHSNRNTYLHWYLQKPGQSPQLLIYKVSNRFSGVPDRFSGSGSGTDFTLKISRVEAEDVGVYYCSQNTHVPPTFGQGTKVEIERTVAAPSVFIFPPSDEQLKSGTASVVCLLNNFYPREAKVQWKVDNALQSGNSQESVTEQDSKDSTYSLSSTLTLSKADYEKHKVYACEVTHQGLSSPVTKSFNRGEC |
| – | – | 0.75 | 87.1 relative (control = 100) | 116 relative (control = 100) | GpH7-A5/GpH7-B3 variant P331_10E/GpL16-k0 (antibody, human IgG1, kappa, Heterodimerized anti-glypican-3 IgG1; mutation in the GpH7-B3 H chain only; also called He Ab) heavy 1: not shown heavy 2: not shown light: DIVMTQSPLSLPVTPGEPASISCQASESLVHSNRNTYLHWYLQKPGQSPQLLIYKVSNRFSGVPDRFSGSGSGTDFTLKISRVEAEDVGVYYCSQNTHVPPTFGQGTKVEIERTVAAPSVFIFPPSDEQLKSGTASVVCLLNNFYPREAKVQWKVDNALQSGNSQESVTEQDSKDSTYSLSSTLTLSKADYEKHKVYACEVTHQGLSSPVTKSFNRGEC |
| 121 relative (control = 100) | 92.5 relative (control = 100) | – | – | – | GpH7-A5/GpH7-B3 variant K334_01G/GpL16-k0 (antibody, human IgG1, kappa, He Ab: the mutation stands only in the GpH7-B3-derived H chain; also called He Ab K334G) heavy 1: not shown heavy 2: not shown light: DIVMTQSPLSLPVTPGEPASISCQASESLVHSNRNTYLHWYLQKPGQSPQLLIYKVSNRFSGVPDRFSGSGSGTDFTLKISRVEAEDVGVYYCSQNTHVPPTFGQGTKVEIERTVAAPSVFIFPPSDEQLKSGTASVVCLLNNFYPREAKVQWKVDNALQSGNSQESVTEQDSKDSTYSLSSTLTLSKADYEKHKVYACEVTHQGLSSPVTKSFNRGEC |
| 102 relative (control = 100) | 83.7 relative (control = 100) | – | – | – | GpH7-A5/GpH7-B3 variant I336_13S/GpL16-k0 (antibody, human IgG1, kappa, He Ab: the mutation stands only in the GpH7-B3-derived H chain; also called He Ab I336S) heavy 1: not shown heavy 2: not shown light: DIVMTQSPLSLPVTPGEPASISCQASESLVHSNRNTYLHWYLQKPGQSPQLLIYKVSNRFSGVPDRFSGSGSGTDFTLKISRVEAEDVGVYYCSQNTHVPPTFGQGTKVEIERTVAAPSVFIFPPSDEQLKSGTASVVCLLNNFYPREAKVQWKVDNALQSGNSQESVTEQDSKDSTYSLSSTLTLSKADYEKHKVYACEVTHQGLSSPVTKSFNRGEC |

The remaining lines, values behind:

| Binder | He/Con_3a [1] | He/Con_2b [2] | He_2aH/2b (FcγRIIa H [3]) [ratio] | He/Con_2aH (FcγRIIa H [4]) | He/Con_2b (FcγRIIb) |
| --- | --- | --- | --- | --- | --- |
| GpH7-A5/GpH7-B3 variant I336_02A/GpL16-k0 (antibody, human IgG1, kappa, He Ab: the mutation stands only in the GpH7-B3-derived H chain; also called He Ab I336A) heavy 1: not shown heavy 2: not shown light: DIVMTQSPLSLPVTPGEPASISCQASESLVHSNRNTYLHWYLQKPGQSPQLLIYKVSNRFSGVPDRFSGSGSGTDFTLKISRVEAEDVGVYYCSQNTHVPPTFGQGTKVEIERTVAAPSVFIFPPSDEQLKSGTASVVCLLNNFYPREAKVQWKVDNALQSGNSQESVTEQDSKDSTYSLSSTLTLSKADYEKHKVYACEVTHQGLSSPVTKSFNRGEC | 111 relative (control = 100) | 84.9 relative (control = 100) | – | – | – |
| GpH7-A5/GpH7-B3 variant I336_03V/GpL16-k0 (antibody, human IgG1, kappa, He Ab: the mutation stands only in the GpH7-B3-derived H chain; also called He Ab I336V) heavy 1: not shown heavy 2: not shown light: DIVMTQSPLSLPVTPGEPASISCQASESLVHSNRNTYLHWYLQKPGQSPQLLIYKVSNRFSGVPDRFSGSGSGTDFTLKISRVEAEDVGVYYCSQNTHVPPTFGQGTKVEIERTVAAPSVFIFPPSDEQLKSGTASVVCLLNNFYPREAKVQWKVDNALQSGNSQESVTEQDSKDSTYSLSSTLTLSKADYEKHKVYACEVTHQGLSSPVTKSFNRGEC | 112 relative (control = 100) | 90.3 relative (control = 100) | – | – | – |
| GpH7-A5/GpH7-B3 variant I336_10E/GpL16-k0 (antibody, human IgG1, kappa, He Ab: the mutation stands only in the GpH7-B3-derived H chain; also called He Ab I336E) heavy 1: not shown heavy 2: not shown light: DIVMTQSPLSLPVTPGEPASISCQASESLVHSNRNTYLHWYLQKPGQSPQLLIYKVSNRFSGVPDRFSGSGSGTDFTLKISRVEAEDVGVYYCSQNTHVPPTFGQGTKVEIERTVAAPSVFIFPPSDEQLKSGTASVVCLLNNFYPREAKVQWKVDNALQSGNSQESVTEQDSKDSTYSLSSTLTLSKADYEKHKVYACEVTHQGLSSPVTKSFNRGEC | 119 relative (control = 100) | 89.8 relative (control = 100) | – | – | – |
